Our source for the stoichiometry N values is article doi:10.1101/2020.04.21.053124.

This assay concerns the target MVI Spring bZip (1-914) (UniProt Q9UM54). Kind of assay: SEC. For orientation: In gel filtration, larger molecules generally elute earlier.

In general, stoichiometry N refers to the number of molecules, sites or subunits per partner or assembly. The substance “MVI Spring bZip (1-914) (from UniProt Q9UM54 1-914)” registered a stoichiometry N of 2.
